Test results from US20090010942A1, “NOVEL PRIMATE CHITINASES AND USES THEREFOR” (WYETH, priority 2007, published 2009).
Several values for one entry are separate records, joined by “and”; a condition that tells them apart may be missing. Identical values can stand only once.

Columns and labels:
[1] = chitinase kcat and Km determination, hydrolysis of chitobiose-4MU; type: biochemical; details: for chitobioside-4MU substrate concentration showing substrate inhibition / apparent transglycosylation: hAMCase 1 nM, mNC 0.25 nM
Protocol: Km and Kcat values for hAMCase and mNC. To better understand the mechanism for the increased specific activity of mNC compared to hAMCase, we measured the km and kcat for each enzyme. The progress curves of hAMCase (1 nM) hydrolysis reactions for 4MU product formation were linear during the first 10 min. for chitobioside-4MU substrate concentrations between 0 to 75 μM (data not shown). The rate of product formation was slower at the highest substrate concentration tested, 150 μM, compared to 75 μM, reflecting substrate inhibition due to transglycosylation, consistent with a previous report (Chou et al. (2006) Biochemistry 45, 4444-4454). We confirmed the high substrate concentration was not due to inner filter effect. In separate control experiments, the 4MU fluorescent signal was not quenched by chitobiose-4MU up to 600 μM.
The initial rates within the first 10 min. of hAMCase (1 nM) or mNC (0.25 nM) were plotted against the concentration of chitobiose-4MU that were in the linear range for both enzymes. […] The same Km and Kcat values for each enzyme were obtained from Line-weaver Burke plots of the linear curves.

[2] = relative specific activity of purified chitinases; type: biochemical; details: 5 μM chitobiose-4MU, 0.1 M citrate phosphate
Protocol: As shown in FIGS. 15A-15D, further characterization of the purified mNC was performed by measuring the relative specific activity, pH profiling, and inhibition by an art-recognized chitinase inhibitor, methylallosamidin. Briefly, various concentrations of mNC, ranging from 0.156 nM to 5 nM, or hAMCase, ranging from 1.56 nM to 50 nM, were incubated with 5 μM chitobiose-4MU substrate in 0.1 M citrate phosphate, 0.0005% Brij35 buffer. The relative specific activity of each enzyme was then determined by measuring the initial rate of enzyme activity versus the enzyme concentration.

[3] = apparent Km of purified chitinases with increasing chitobiose-4MU; type: biochemical; details: for Km: purified 6-histidine tagged enzyme
From the text: hAMCase, engineered with a C-terminal 6-histidine tag, was purified to a single band on SDS-PAGE from a stable CHO cell line transfected with cDNA encoding this hAMCase construct by nickel chromatography. Similarly, mNC, engineered with a C-terminal 6-histidine tag, was purified to a single band on an SDS-PAGE from COS cells transfected with cDNA encoding this mNC construct by nickel chromatography. The enzymatic activity of recombinant hAMCase to mNC was compared, as follows.

[4] = pH profile of purified chitinases; type: biochemical; details: for activity at lower pH values: pH 2.0 and 3.5; for pH of maximal activity: pH 2 to pH 8, 5 μM chitobiose-4MU; for slope of the initial rate at the various enzyme concentrations at maximal activity: pH 5.0, 5 μM chitobiose-4MU
Protocol: Analysis of the pH profiles of hAMCase and mNC were performed by incubating various concentrations of purified hAMCase (ranging from 0.05 nM to 50 nM) or mNC (ranging from 0.018 nM to 5 nM) with 5 μM chitobiose-4MU substrate in 0.1 M citrate phosphate buffer containing 0.005% Brij35 prepared at pH 2 to pH 8. The slope of the initial enzyme rate for each of the enzyme concentrations was then compared at each pH. […] The slope of the initial rate at the various enzyme concentrations measured for this maximal activity was 13.1 for mNC and 0.45 for hAMCase. This maximal value was set to 100% for each enzyme and the relative activity, for comparison of the activity at different pH values.

[5] = chitin RBV assay (chitin hydrolysis); type: biochemical; details: 37° C., 24 hours
Protocol: Chitin RBV assay. Carboxymethyl-substituted chitin labeled covalently with Remazol Brilliant Violet (CM-Chitin-RBV) (Loewe Biochemica, Sauerlach, Germany) was used to measure chitinolytic activity (Wirth S J, Wolf G A, (1992) Soil Biol Biochem v24 p511-519). A solution of 2 mg/ml CM-chitin-RBV (50 μL) was added to hAMCase (AMCase) or mNC (cyno chitintase) in a total volume of 200 μL of buffer (0.2 M citrate phosphate buffer pH 5.0) in 96-well v-bottom plates (Costar Cat. No. 3894 Acton, Mass.). The plates were sealed with low evaporation lids and incubated at 37° C. for 24 hours. The reaction was terminated by the addition of 1 N HCl, causing precipitation of the non-degraded high-polymeric substrate. The plates were cooled on ice for 10 min. and centrifuged (1400 g, 10 min). The supernatants (100 μL) were transferred to 96-well plates (Costar cat. No. 3690) and measured at […] (Molecular devices).
Chitin hydrolysis. We employed the chitin RBV assay, a soluble, dye-labelled and acid-precipitable assay for endo-chitinases to determine if mNC and hAMCase hydrolyze chitin (Wirth S J, Wolf G A (1992) Soil Biol Biochem 24, 511-519). […] The released amount of soluble chitin oligomers was dose-dependent on enzyme concentration (FIG. 16).

[6] = chitinase enzyme assay in conditioned media of transfected COS cells; type: biochemical
Protocol: Enzymatic activity assays were performed using cloned mNC, engineered hNC (stop codon substituted to allow for translation of full protein), engineered mut-hNC (truncated), and cloned hAMCase in COS cells. The full length mNC construct was expressed and the chitinase activity of the resultant gene products was measured.
Cultured conditions were as follows: COS cells were cultured in DME media and were transfected at 90% confluency using TransIT®-LT1 transfection reagent (MIRUS). 24 hours post transfection, cell culture media was replaced with serum-free R1CD1 media. Conditioned media, containing secreted enzyme, was collected 48 hours later. Chitinase enzyme assays were performed directly from these samples, as follows.

mNC = assay: methylallosamidin inhibition of mNC, chitobiose-4MU substrate; type: biochemical, cynomolgus monkey
Protocol: (§1) Analysis of hAMCase and mNC inhibition by methylallosamidin was performed by incubating various concentrations of methylallosamidin with 2 nM mNC or 2 nM hAMCase for 10 minutes prior to the addition of 5 μM chitobiose-4MU substrate. Maximal activity was determined by the initial rate of the enzyme activity without the inhibitor methylallosamidin. The percentage of enzyme activity was then calculated and plotted for each concentration of methylallosamidin compared to maximal activity. For the data shown in FIGS. 15C and 15D, the maximal initial rate (RFU/sec) is 1.1 for hAMCase and 21.0 for mNC. […] Conversely, 10 times more methylallosaminidin was required to inhibit mNC than hAMCase.

hAMCase = target: T1, hAMCase (Homo sapiens, UniProt Q9BZP6); assay: methylallosamidin inhibition of hAMCase, chitobiose-4MU substrate; type: biochemical; details: 2 nM hAMCase, 5 μM chitobiose-4MU
T1 construct: 6-histidine tag (C); made in house
T1 sequence (Q9BZP6 22-476 N45D/D47N/R61M/I339V/F354S/V432G): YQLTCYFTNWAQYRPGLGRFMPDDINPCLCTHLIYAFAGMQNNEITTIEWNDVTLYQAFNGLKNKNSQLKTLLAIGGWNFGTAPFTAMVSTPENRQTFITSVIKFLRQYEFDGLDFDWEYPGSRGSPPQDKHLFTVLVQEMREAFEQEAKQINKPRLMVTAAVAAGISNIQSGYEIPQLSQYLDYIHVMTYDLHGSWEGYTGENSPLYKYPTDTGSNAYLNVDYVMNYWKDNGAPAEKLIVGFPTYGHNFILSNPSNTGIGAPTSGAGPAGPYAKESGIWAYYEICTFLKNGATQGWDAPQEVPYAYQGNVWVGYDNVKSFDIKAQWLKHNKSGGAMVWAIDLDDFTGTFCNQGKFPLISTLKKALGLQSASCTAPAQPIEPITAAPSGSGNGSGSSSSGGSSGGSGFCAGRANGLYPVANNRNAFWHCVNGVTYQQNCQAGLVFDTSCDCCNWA
Protocol: as §1

[7] = Table 1, pH 5.0 citrate phosphate buffer
[8] = Table 1, pH 5.0 citrate phosphate buffer, read-out: Km
[9] = text, Michaelis-Menten fit, hAMCase 1 nM or mNC 0.25 nM, read-out: Km app

| chitobioside-4MU substrate concentration showing substrate inhibition / apparent transglycosylation [1] [µM] | Compound | kcat [1, 7] | Km [1, 8] [µM] | kcat ([1]; summary text b32) | kcat ([1]; text b472, unit not given) | Km ([1]; text, Michaelis-Menten fit, hAMCase 1 nM or mNC 0.25 nM, listed as AMCase, read-out: Km app) [µM] | Km [1, 9] | relative specific activity [2] [units/sec/nM] | Km [3] [µM] | activity at lower pH values [4] | pH of maximal activity [4] | slope of the initial rate at the various enzyme concentrations at maximal activity [4] | chitin hydrolysis [5] | enzymatic (chitinase) activity [6] | lower apparent Km for chitobiose-4MU compared to hAMCase ([3]; mNC versus hAMCase) [fold] | inhibition of mNC with increasing concentrations of methylallosamidin (mNC; 2 nM mNC, 5 μM chitobiose-4MU) | IC50 (mNC; 2 nM mNC, 10 minutes preincubation, 5 μM chitobiose-4MU) [nM] | amount of inhibitor required to inhibit mNC relative to hAMCase (mNC; mNC versus hAMCase) [times] | inhibition of hAMCase with increasing concentrations of methylallosamidin (hAMCase) | IC50 (hAMCase; 10 minutes preincubation) [nM] |
| --- | --- | --- | --- | --- | --- | --- | --- | --- | --- | --- | --- | --- | --- | --- | --- | --- | --- | --- | --- | --- |
| 150 | hAMCase: human Acidic Mammalian Chitinase, SEQ ID NO:29 | 3.0 ± .35 s − 1 | 42 ± 6 | about 3 s^−1 | 3.0+/−0.35 | 42 | ~42 µM | 0.4 | 20 | lower activity, but retain significant activity | 5.0 | 0.45 | generated soluble chitin oligomers |  |  |  |  |  |  |  |
| ≥ 37 | mNC: macaque novel chitinase cloned from cynomolgus monkey, SEQ ID NO:2 | 31.8 ± 3.2 s − 1 | 6 ± 1 | about 32 s^−1 | 31.8+/−3.2 |  | ~6 µM and 6 µM | 14.4 | 2 | lower activity, but retain significant activity | 5.0 | 13.1 | generated soluble chitin oligomers | significant enzymatic activity | 10 |  |  |  |  |  |
|  | COC[C@H]1O[C@@H](O[C@H]2[C@@H](O)[C@@H](NC(C)=O)[C@H](OC3C(O)C4N=C(N(C)C)OC4C3CO)O[C@@H]2CO)[C@H](NC(C)=O)[C@H](O)[C@@H]1O (some centres unmarked) [methylallosamidin] |  |  |  |  |  |  |  |  |  |  |  |  |  |  | dose-dependent inhibition | 58 | 10 | dose-dependent inhibition | 5.5 |
